The nanobody polyreactivity screen of Harvey et al. (2022)

Experiment: yeast display, Sf9 membrane polyspecificity reagent, FACS + sequencing; frameworks hold sequencing errors
How it was run: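 Galactose-induced (36–48 hours) yeast carrying a synthetic nanobody display library were exposed to 10% biotinylated, detergent-solubilized Sf9 membrane reagent at 4 °C for 1 hour. FACS followed streptavidin microbead enrichment, using low and high (top ~1%) gates for expression (anti-HA) and reagent binding (streptavidin). Colony PCR, MiSeq 2 × 250 sequencing and CDR-length filtering followed. Labels for polyreactivity reflect the gate of origin.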
In the case of “QVQLVESGGGLVQAGGSLRLSCAASGFTFAVYVMGWYRQAPGKERELVATISISVGSTYYADSVKGRFTISRDNAKNTVYLQMNSLKPEDTAVYYCNADPPPEYYPDKDNYWGQGTQVTVSS”, the “polyreactivity (PSR sort gate)” value was “low polyreactivity”.
For “QVQLVESGGGLVQAGGSLRLSCAASGFTFAYAMGWYRQAPGKERELVAAISFSGGSTYYADSVKGRFTISRDNAKNTVYLQMNSLKPEDTAVYYCNKRGGKRSTMDYWGHGTQVTVSS”, the “polyreactivity (PSR sort gate)” value was “low polyreactivity”.
In the case of “QVQLVESGGGLVQAGGSLRLSCAASGFTFAYHAMGWYRQAPGKERELVAGINSSGDGTYYADSVKGRFTISRDNAKNTVYLQMNSLKQEDTAVYYCAADYTGFYQDGSYVDYDYWGQGTQVTVSS”, the “polyreactivity (PSR sort gate)” value was “low polyreactivity”.
With “QVQLVESGGGLVQAGGSLRLSCAASGFTFAYNAMGWYRQAPGKERELVATISWSGGSPYYADSVKGRFTISRDNAKNTVYLQMNSLKPEDTAVYYCATTIFYTYYGLYDYWGQGTQVTVSS” the “polyreactivity (PSR sort gate)” value was “high polyreactivity”.
For “QVQLVESGGGLVQAGGSLRLSCAASGFTFAYYAMGWYRQAPGKERELVAGISWRGGRTYYADSVKGRFTISRDNAKNTVYLQMNSLKPEDTAVYYCAKQPGNFGRFDYWGQGTQVTVSS”, the “polyreactivity (PSR sort gate)” value was “high polyreactivity”.
For “QVQLVESGGGLVQAGGSLRLSCAASGFTFAYYVMGWYIQAPGKETELVAAISISGARTYYAESVKGRFTISRDNSKNTVYLQMNRLKPEDTAVYYCAADRRTDGHDYWGLGTQVTVSS”, the “polyreactivity (PSR sort gate)” value was “high polyreactivity”.
In the case of “QVQLVESGGGLVQAGGSLRLSCAASGFTFDANAMGWYRQAPGKERELVAAISWSGGSTYYADSVKGRFTISRDNAKNTVYLQMNSLKPEDTAVYYCAARRYSYVGGQGSDYWGQGTKVTVSS”, the “polyreactivity (PSR sort gate)” value was “high polyreactivity”.
In the case of “QVQLVESGGGLVQAGGSLRLSCAASGFTFDAYAMGWYRQAPGKERELVADINYSVGSTTYADSVKVRFTISRDNAKNTVYLQMNSLKPEDTAVYYCAAQGTWYAWDYDYWGQGTQVTVSS”, the “polyreactivity (PSR sort gate)” value was “low polyreactivity”.
With “QVQLVESGGGLVQAGGSLRLSCAASGFTFDDNAMGWYRQAPGKERELVAVITKSGGRTYYADSVKGRFTLSRDNAKNTVYLQMNSLKPEDTAVYYCNADGRNWYYKWYDYWGQGTQVTVSS” the “polyreactivity (PSR sort gate)” value was “low polyreactivity”.
With “QVQLVESGGGLVQAGGSLRLSCAASGFTFDEKAMGWYRQAPGINYSGASTYYADSVKGRFTISRDNAKNTVYLQMNSLKPEDTAVYYCAAEVVAQMNYWGQGTQVTVSS” the “polyreactivity (PSR sort gate)” value was “low polyreactivity”.
With “QVQLVESGGGLVQAGGSLRLSCAASGFTFDENAMGWYRQAPGINYSGASTYYADSVKGRFTISRDNATNTVYLQMNSLKPEDTAVYYCAAEVVAQMNYWGQGTQVTVSS” the “polyreactivity (PSR sort gate)” value was “low polyreactivity”.
For “QVQLVESGGGLVQAGGSLRLSCAASGFTFDFYDMGWYRQAPGKERELVAAISWDGGTTYYADSVKGRFTISRDNAKNTVYLQMNSLKPEDTAVYYCAADDWVYVPTRAWYLYEYWGQGTQVTVSS”, the “polyreactivity (PSR sort gate)” value was “low polyreactivity”.
With “QVQLVESGGGLVQAGGSLRLSCAASGFTFDIYAMGWYRQAPGKERELVADITSGGSTDYADSVKGRFTISRDNAKNTVYLQMNSLKPEDTAVFYCNAAVFYEPEWQYDYWGQGTQVTVSS” the “polyreactivity (PSR sort gate)” value was “low polyreactivity”.
With “QVQLVESGGGLVQAGGSLRLSCAASGFTFDIYAMGWYRQAPGKERELVADITSGGSTDYADSVKGRFTISRDNAKNTVYVQMNSLKPEDTAVYYSNAAVFYDPEWQYDYWGQGTQVTVSS” the “polyreactivity (PSR sort gate)” value was “low polyreactivity”.
With “QVQLVESGGGLVQAGGSLRLSCAASGFTFDIYAMGWYRQAPGKERELVATISRSGGTTYYADSVKGRFTISRDNAKNTVYLQMNSLKPEDTAVYYCAAGAYSYRYRYRMDYWGQGTQVTVSS” the “polyreactivity (PSR sort gate)” value was “high polyreactivity”.
In the case of “QVQLVESGGGLVQAGGSLRLSCAASGFTFDNYAMGWYRQEPGKERELVAAINISGGRTYYADSVKGRFTISRDNAKNTVYLQMNSLKPEDTAVYYCNIYYWYYALDYWGQGTQVTVSS”, the “polyreactivity (PSR sort gate)” value was “high polyreactivity”.
